# Test system: 3-methylcrotonic acid
# Assay type: biochemical, Yersinia frederiksenii
# Design: key: “+” representing a low increase in activity; “++++” representing a high increase in activity
row,Molecule,Activity relative to WT
1,I283T-N285P-N287T-Q290E-S322T-N388M-K394R-C430A-L432F-L434W-S436N-i444aT-dG462 (protein) MFLKSLREQINLLKRQGDLRIINRPVDSYLEAAAIIRRSTETKAPVPLMTNIKGYPGCSIVGGLAALSSNPEYPLSRVAMSLGLSTTASAQSIVQYLIDGLKKTPYLPVEIDSNSAPCKQNILRGEDASLAHFPIPQVHQHDGNRYVNTWGVFIVESPDGQWCNWSIQRVQYLNDRQMIALVFPSQHISDIWEEWVKIGKPMPYALVQGCEPIVPYIAGLPLLERNVNEAEYIGALYGKGIEVVKCETHDLRVPASSEVVIEGYFAITREGVEGPFGEFAGYTPPETSLEPILSITAISWQDDPIWPVVAEGKPVDEYHTCTGIGDAAAIQNVLLTANLPVSFVWVPLYSACHLMIVSINRHWRQTHPDLTSEQLTKKVGDVIHQTRMSIKLPRIVVLDDDVDPADTESLLWALATRIHPERKRYFYESAIFPWLNCYSEEERHNRKGKRVIIDALLPENHGAISSFDYAYPDDIKQRVLMHWETDFSHD,++++
2,I283T-N285P-N287T-Q290E-S322T-N388M-K394R-C430A-L432F-L434W-S436N-i447aY-dG462 (protein) MFLKSLREQINLLKRQGDLRIINRPVDSYLEAAAIIRRSTETKAPVPLMTNIKGYPGCSIVGGLAALSSNPEYPLSRVAMSLGLSTTASAQSIVQYLIDGLKKTPYLPVEIDSNSAPCKQNILRGEDASLAHFPIPQVHQHDGNRYVNTWGVFIVESPDGQWCNWSIQRVQYLNDRQMIALVFPSQHISDIWEEWVKIGKPMPYALVQGCEPIVPYIAGLPLLERNVNEAEYIGALYGKGIEVVKCETHDLRVPASSEVVIEGYFAITREGVEGPFGEFAGYTPPETSLEPILSITAISWQDDPIWPVVAEGKPVDEYHTCTGIGDAAAIQNVLLTANLPVSFVWVPLYSACHLMIVSINRHWRQTHPDLTSEQLTKKVGDVIHQTRMSIKLPRIVVLDDDVDPADTESLLWALATRIHPERKRYFYESAIFPWLNCYSEEERHNRKGKRVIIDALLPENHGAISSFDYAYPDDIKQRVLMHWETDFSHD,++++
3,I283T-N285P-N287T-Q290E-S322T-N388M-K394R-C430A-L432F-L434W-S436N-i447aL-dG462 (protein) MFLKSLREQINLLKRQGDLRIINRPVDSYLEAAAIIRRSTETKAPVPLMTNIKGYPGCSIVGGLAALSSNPEYPLSRVAMSLGLSTTASAQSIVQYLIDGLKKTPYLPVEIDSNSAPCKQNILRGEDASLAHFPIPQVHQHDGNRYVNTWGVFIVESPDGQWCNWSIQRVQYLNDRQMIALVFPSQHISDIWEEWVKIGKPMPYALVQGCEPIVPYIAGLPLLERNVNEAEYIGALYGKGIEVVKCETHDLRVPASSEVVIEGYFAITREGVEGPFGEFAGYTPPETSLEPILSITAISWQDDPIWPVVAEGKPVDEYHTCTGIGDAAAIQNVLLTANLPVSFVWVPLYSACHLMIVSINRHWRQTHPDLTSEQLTKKVGDVIHQTRMSIKLPRIVVLDDDVDPADTESLLWALATRIHPERKRYFYESAIFPWLNCYSEEERHNRKGKRVIIDALLPENHGAISSFDYAYPDDIKQRVLMHWETDFSHD,++++
4,I283T-N285P-N287T-Q290E-S322T-N388M-K394R-C430A-L432F-L434W-S436N-i447aK-dG462 (protein) MFLKSLREQINLLKRQGDLRIINRPVDSYLEAAAIIRRSTETKAPVPLMTNIKGYPGCSIVGGLAALSSNPEYPLSRVAMSLGLSTTASAQSIVQYLIDGLKKTPYLPVEIDSNSAPCKQNILRGEDASLAHFPIPQVHQHDGNRYVNTWGVFIVESPDGQWCNWSIQRVQYLNDRQMIALVFPSQHISDIWEEWVKIGKPMPYALVQGCEPIVPYIAGLPLLERNVNEAEYIGALYGKGIEVVKCETHDLRVPASSEVVIEGYFAITREGVEGPFGEFAGYTPPETSLEPILSITAISWQDDPIWPVVAEGKPVDEYHTCTGIGDAAAIQNVLLTANLPVSFVWVPLYSACHLMIVSINRHWRQTHPDLTSEQLTKKVGDVIHQTRMSIKLPRIVVLDDDVDPADTESLLWALATRIHPERKRYFYESAIFPWLNCYSEEERHNRKGKRVIIDALLPENHGAISSFDYAYPDDIKQRVLMHWETDFSHD,++++
5,I283T-N285P-N287T-Q290E-S322T-N388M-K394R-C430A-L432F-L434W-S436N-i444aK-dG462 (protein) MFLKSLREQINLLKRQGDLRIINRPVDSYLEAAAIIRRSTETKAPVPLMTNIKGYPGCSIVGGLAALSSNPEYPLSRVAMSLGLSTTASAQSIVQYLIDGLKKTPYLPVEIDSNSAPCKQNILRGEDASLAHFPIPQVHQHDGNRYVNTWGVFIVESPDGQWCNWSIQRVQYLNDRQMIALVFPSQHISDIWEEWVKIGKPMPYALVQGCEPIVPYIAGLPLLERNVNEAEYIGALYGKGIEVVKCETHDLRVPASSEVVIEGYFAITREGVEGPFGEFAGYTPPETSLEPILSITAISWQDDPIWPVVAEGKPVDEYHTCTGIGDAAAIQNVLLTANLPVSFVWVPLYSACHLMIVSINRHWRQTHPDLTSEQLTKKVGDVIHQTRMSIKLPRIVVLDDDVDPADTESLLWALATRIHPERKRYFYESAIFPWLNCYSEEERHNRKGKRVIIDALLPENHGAISSFDYAYPDDIKQRVLMHWETDFSHD,++++
6,I283T-N285P-N287T-Q290E-S322T-N388M-K394R-C430A-L432F-L434W-S436N-i445aQ-dG462 (protein) MFLKSLREQINLLKRQGDLRIINRPVDSYLEAAAIIRRSTETKAPVPLMTNIKGYPGCSIVGGLAALSSNPEYPLSRVAMSLGLSTTASAQSIVQYLIDGLKKTPYLPVEIDSNSAPCKQNILRGEDASLAHFPIPQVHQHDGNRYVNTWGVFIVESPDGQWCNWSIQRVQYLNDRQMIALVFPSQHISDIWEEWVKIGKPMPYALVQGCEPIVPYIAGLPLLERNVNEAEYIGALYGKGIEVVKCETHDLRVPASSEVVIEGYFAITREGVEGPFGEFAGYTPPETSLEPILSITAISWQDDPIWPVVAEGKPVDEYHTCTGIGDAAAIQNVLLTANLPVSFVWVPLYSACHLMIVSINRHWRQTHPDLTSEQLTKKVGDVIHQTRMSIKLPRIVVLDDDVDPADTESLLWALATRIHPERKRYFYESAIFPWLNCYSEEERHNRKGKRVIIDALLPENHGAISSFDYAYPDDIKQRVLMHWETDFSHD,++++
7,I283T-N285P-N287T-Q290E-S322T-N388M-K394R-C430A-L432F-L434W-S436N-i444aL-dG462 (protein) MFLKSLREQINLLKRQGDLRIINRPVDSYLEAAAIIRRSTETKAPVPLMTNIKGYPGCSIVGGLAALSSNPEYPLSRVAMSLGLSTTASAQSIVQYLIDGLKKTPYLPVEIDSNSAPCKQNILRGEDASLAHFPIPQVHQHDGNRYVNTWGVFIVESPDGQWCNWSIQRVQYLNDRQMIALVFPSQHISDIWEEWVKIGKPMPYALVQGCEPIVPYIAGLPLLERNVNEAEYIGALYGKGIEVVKCETHDLRVPASSEVVIEGYFAITREGVEGPFGEFAGYTPPETSLEPILSITAISWQDDPIWPVVAEGKPVDEYHTCTGIGDAAAIQNVLLTANLPVSFVWVPLYSACHLMIVSINRHWRQTHPDLTSEQLTKKVGDVIHQTRMSIKLPRIVVLDDDVDPADTESLLWALATRIHPERKRYFYESAIFPWLNCYSEEERHNRKGKRVIIDALLPENHGAISSFDYAYPDDIKQRVLMHWETDFSHD,++++
8,I283T-N285P-N287T-Q290E-S322T-N388M-K394R-C430A-L432F-L434W-S436N-i444aS-dG462 (protein) MFLKSLREQINLLKRQGDLRIINRPVDSYLEAAAIIRRSTETKAPVPLMTNIKGYPGCSIVGGLAALSSNPEYPLSRVAMSLGLSTTASAQSIVQYLIDGLKKTPYLPVEIDSNSAPCKQNILRGEDASLAHFPIPQVHQHDGNRYVNTWGVFIVESPDGQWCNWSIQRVQYLNDRQMIALVFPSQHISDIWEEWVKIGKPMPYALVQGCEPIVPYIAGLPLLERNVNEAEYIGALYGKGIEVVKCETHDLRVPASSEVVIEGYFAITREGVEGPFGEFAGYTPPETSLEPILSITAISWQDDPIWPVVAEGKPVDEYHTCTGIGDAAAIQNVLLTANLPVSFVWVPLYSACHLMIVSINRHWRQTHPDLTSEQLTKKVGDVIHQTRMSIKLPRIVVLDDDVDPADTESLLWALATRIHPERKRYFYESAIFPWLNCYSEEERHNRKGKRVIIDALLPENHGAISSFDYAYPDDIKQRVLMHWETDFSHD,++++
9,I283T-N285P-N287T-Q290E-S322T-N388M-K394R-C430A-L432F-L434W-S436N-i444aE-dG462 (protein) MFLKSLREQINLLKRQGDLRIINRPVDSYLEAAAIIRRSTETKAPVPLMTNIKGYPGCSIVGGLAALSSNPEYPLSRVAMSLGLSTTASAQSIVQYLIDGLKKTPYLPVEIDSNSAPCKQNILRGEDASLAHFPIPQVHQHDGNRYVNTWGVFIVESPDGQWCNWSIQRVQYLNDRQMIALVFPSQHISDIWEEWVKIGKPMPYALVQGCEPIVPYIAGLPLLERNVNEAEYIGALYGKGIEVVKCETHDLRVPASSEVVIEGYFAITREGVEGPFGEFAGYTPPETSLEPILSITAISWQDDPIWPVVAEGKPVDEYHTCTGIGDAAAIQNVLLTANLPVSFVWVPLYSACHLMIVSINRHWRQTHPDLTSEQLTKKVGDVIHQTRMSIKLPRIVVLDDDVDPADTESLLWALATRIHPERKRYFYESAIFPWLNCYSEEERHNRKGKRVIIDALLPENHGAISSFDYAYPDDIKQRVLMHWETDFSHD,++++
10,V382L-N388M-K394R-C430N-L432F-L434W-S436N (protein) MFLKSLREQINLLKRQGDLRIINRPVDSYLEAAAIIRRSTETKAPVPLMTNIKGYPGCSIVGGLAALSSNPEYPLSRVAMSLGLSTTASAQSIVQYLIDGLKKTPYLPVEIDSNSAPCKQNILRGEDASLAHFPIPQVHQHDGNRYVNTWGVFIVESPDGQWCNWSIQRVQYLNDRQMIALVFPSQHISDIWEEWVKIGKPMPYALVQGCEPIVPYIAGLPLLERNVNEAEYIGALYGKGIEVVKCETHDLRVPASSEVVIEGYFAITREGVEGPFGEFAGYIPNENSLQPILSITAISWQDDPIWPVVAEGKPVDEYHTCSGIGDAAAIQNVLLTANLPVSFVWVPLYSACHLMIVSINRHWRQTHPDLTSEQLTKKVGDLIHQTRMSIKLPRIVVLDDDVDPADTESLLWALATRIHPERKRYFYESNIFPWLNCYSEEERHNRKGKRVIIDALLPENHGAISSFDYAYPDDIKQRVLMHWETDFSHD,+

# Source: patent US20250327097A1, “ORGANISMS PRODUCING LESS CROTONIC ACID” (Global Bioenergies, priority 2021, published 2025)
